These results are taken from paper PMC5861430 (Nucleic Acids Research, 2018).

B1: WT His-tagged PCNA (natural protein, Xenopus laevis, UniProt P18248 1-261, looked up)
chain: MFEARLVQGSILKKVLEALKDLIDEACWDITSSGISLQSMDSSHVSLVQLTLRSDGFDTYRCDRNQSIGVKMSSMSKILKCAASDDIITLRAEDNADTVTMVFESPNQEKVSDYEMKLMDLDVEQLGIPEQEYSCVIKMPSGEFARICRDLSQIGDAVVISCAKDGVKFSASGELGTGNVKLSQTSNVDKEEEAVTIEMNEPVQLTFALRYLNFFTKATPLSPTVILSMSADIPLVVEYKIADMEHVKYYLAPKIEDEEAS
B2: GST-APE2-ZF (domain or fragment, Xenopus laevis, UniProt Q6DDT4 456-517, looked up)
chain: GPPPPPNCKGHSEPCVLRTVKKAGPNCGRQFYVCARPEGHSSNPQARCNFFLWLTKKAGCED

What all share (experiment): pull-down
The target in one experiment is T1, GST-APE2 (Xenopus laevis, UniProt Q6DDT4 1-517).
T1 sequence (looked up): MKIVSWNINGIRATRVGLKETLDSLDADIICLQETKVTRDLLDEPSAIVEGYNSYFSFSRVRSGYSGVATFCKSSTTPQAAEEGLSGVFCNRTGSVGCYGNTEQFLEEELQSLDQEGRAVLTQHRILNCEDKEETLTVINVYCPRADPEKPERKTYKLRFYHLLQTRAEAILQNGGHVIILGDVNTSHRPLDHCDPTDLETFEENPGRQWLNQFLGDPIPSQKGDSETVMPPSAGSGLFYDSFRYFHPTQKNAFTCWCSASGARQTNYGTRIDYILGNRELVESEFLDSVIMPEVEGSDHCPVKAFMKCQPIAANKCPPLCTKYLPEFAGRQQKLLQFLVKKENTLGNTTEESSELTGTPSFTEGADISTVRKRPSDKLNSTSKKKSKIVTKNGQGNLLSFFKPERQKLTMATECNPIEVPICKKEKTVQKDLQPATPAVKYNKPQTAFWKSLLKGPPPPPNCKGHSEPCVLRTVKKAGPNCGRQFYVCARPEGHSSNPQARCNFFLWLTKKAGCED

The target of the experiment “WT His-tagged PCNA” is B1.
In experiment [1] the target is PK PCNA (P253A-K254A PCNA) (Xenopus laevis, UniProt P18248 1-261, P253A | K254A).

Regarding B1, the binding result with GST-APE2 is on record as “binds”.

Turning to B2, the binding result (with WT His-tagged PCNA; in experiment [1]) was “binds” each time.
